# Laboratory results: US20140256786
# Like-named read-outs stand apart in the source and are kept apart here.
# B1: 2xGST-dPINK1 fusion protein with GST fused at both the N- and C-terminus of dPINK1 (protein)
# chain: KEDELEGVCWEIREAASRLQNAWNHDEISDTLDSKFTIDDLEIGPPIAKGCAAVVYAADFKKDVASDGASLHTDAQPQATPAFAPNSWSTHEMMSPLQNMSRFVHNFGGSVDNVFHYSQPSAASDFVGAQSREQDQRHHEQQQHQNQEQEQHQNQEPSSSAFNVTSPANSNINSSVDSYPLALKMMFNYDIQSNALSILRAMYKETVPARQRGMNEAADEWERLLQNQTVHLPRHPNIVCMFGFFCDEVRNFPDGHLLYPVAQPQRINPQGYGRNMSLYLLMKRYDHSLRGLLDSQDLSTRNRILLLAQMLEAVNHLSRHGVAHRDLKSDNVLIELQDDAAPVLVLSDFGCCLADKVHGLRLPYVSHDVDKGGNAALMAPEIFNTMPGPFAVLNYGKADLWACGALAYEIFGNRNPFYSSSGGMARERGEMTLSLRNSDYRQDQLPPMSDACPPLLQQLVYNILNPNPSKRVSPDIAANVVQLFLWAPSNWLKAGGMPNSPEILQWLLSLTTKIMCEGRPQMGAGLMPVASCGNRRAYVEYLLICSFLARARLRRIRGALNWIQNVVA
# B2: Drosophila PINK1 protein affinity purified from HEK293 cells by immunoprecipitation (protein)
# chain: MSVRLLTVRLIKHGRYILRSYCKRDIHANILDQNQLKTRSKRGFPLPSTAANVLRTTPQQAAKSVVNVVPRTINSPSGSPFNGSGSSPTSSSGIFRVGQHARKLFIDNILSRVTTTYSEDLRQRATRKLFFGDSAPFFALIGVSLASGSGVLSKEDELEGVCWEIREAASRLQNAWNHDEISDTLDSKFTIDDLEIGPPIAKGCAAVVYAADFKKDVASDGASLHTDAQPQATPAFAPNSWSTHEMMSPLQNMSRFVHNFGGSVDNVFHYSQPSAASDFVGAQSREQDQRHHEQQQHQNQEQEQHQNQEPSSSAFNVTSPANSNINSSVDSYPLALKMMFNYDIQSNALSILRAMYKETVPARQRGMNEAADEWERLLQNQTVHLPRHPNIVCMFGFFCDEVRNFPDGHLLYPVAQPQRINPQGYGRNMSLYLLMKRYDHSLRGLLDSQDLSTRNRILLLAQMLEAVNHLSRHGVAHRDLKSDNVLIELQDDAAPVLVLSDFGCCLADKVHGLRLPYVSHDVDKGGNAALMAPEIFNTMPGPFAVLNYGKADLWACGALAYEIFGNRNPFYSSSGGMARERGEMTLSLRNSDYRQDQLPPMSDACPPLLQQLVYNILNPNPSKRVSPDIAANVVQLFLWAPSNWLKAGGMPNSPEILQWLLSLTTKIMCEGRPQMGAGLMPVASCGNRRAYVEYLLICSFLARARLRRIRGALNWIQNVVA
# Columns and labels:
# [1] = tested on: GST-dMiroΔTM fusion protein (amino acids 1-634 of the full-length dMiro protein, transmembrane domain deleted) [GST: P08515]
# [2] = molecular target: GST-dMiroΔTM fusion protein (amino acids 1-634 of the full-length dMiro protein, transmembrane domain deleted) [GST: P08515]; remark: listed apart in the source
molecule,measurement,setting,value
mammalian PINK1 protein affinity purified from HEK293 cells by immunoprecipitation,in vitro kinase assay,[1],also failed to phosphorylate GST-dMiroΔTM in these assays
B1,in vitro kinase assay (P32 autoradiography),[2],failed to show phosphorylation of GST-dMiroΔTM
B2,in vitro kinase assay,[2],also failed to phosphorylate GST-dMiroΔTM in these assays
